Our source for the Kd and IC50 values is the Immune Epitope Database (IEDB).

Where only a bound is given, the exact number is not on record here.

One assay concerns the target HLA-A*11:01. Nature of the assay: IEDB peptide-MHC binding, purified MHC/competitive/radioactivity; filed as Kd, often an IC50 or EC50 that approximates it; ≥ and ≤ were set here for values at or beyond the usual limits of such assays.
A further assay deals with HLA-A*30:01. Described as above.
In another assay the target is HLA-A*26:01. The description is as above.
The target of the next assay is HLA-A*01:01. Described as above.
In the next assay the target is HLA-B*15:01. The description is as above.
A further assay has as its target HLA-B*08:01. The description is as above.
A further assay deals with HLA-A*03:01. The assay is described as above. As to conditions: source organism: Dengue virus 4 Philippines/H241/1956.
Another assay has as its target HLA-A*02:01. Put plainly: IEDB peptide-MHC binding, purified MHC/competitive/fluorescence; ≥ and ≤ were set here for values at or beyond the usual limits of such assays. The settings on record: source organism: Zaire ebolavirus.
For another assay, the target named is HLA-A*24:02. The assay is described as above.
The target of a further assay is HLA-A*30:02. Nature of the assay: IEDB peptide-MHC binding, purified MHC/competitive/radioactivity; filed as Kd, often an IC50 or EC50 that approximates it; ≥ and ≤ were set here for values at or beyond the usual limits of such assays.
In another assay the target is HLA-B*44:02. The assay is described as above.
The target in the next assay is HLA-B*44:03. The description is as above.
The next assay deals with HLA-B*58:01. Put plainly: IEDB peptide-MHC binding, purified MHC/direct/fluorescence; filed as Kd, often an IC50 or EC50 that approximates it; ≥ and ≤ were set here for values at or beyond the usual limits of such assays. The settings on record: source organism: Bacillus cereus.
The target of the next assay is HLA-B*57:01. The assay is described as above. The settings on record: source organism: Bacillus cereus.
The target of another assay is HLA-B*07:02. Nature of the assay: IEDB peptide-MHC binding, purified MHC/competitive/radioactivity; filed as Kd, often an IC50 or EC50 that approximates it; ≥ and ≤ were set here for values at or beyond the usual limits of such assays. The settings on record: source organism: Dengue virus 3 Martinique/1243/1999.
The mark [1] stands for this setting: source organism: Dengue virus 1 Brazil/97-11/1997.
[2] abbreviates: source organism: Vaccinia virus WR.
The mark [3] stands for this setting: source organism: Dengue virus 4 Philippines/H241/1956.
[4] abbreviates: source organism: Dengue virus 3 Martinique/1243/1999.
Where [5] appears, read: source organism: Zaire ebolavirus.

For the sequence GSLLTCAKFK, the figures for the Kd with HLA-A*11:01 (setting [1]) and with HLA-A*30:01 (setting [1]) were 96.8 nM and 433 nM, respectively.
Take CIAVGMVTLY: the Kd is 483 nM with HLA-A*26:01 (setting [1]) and 1380 nM in the assay with HLA-A*01:01 (setting [1]).
With VLLDYGLHG, in the assay with HLA-B*15:01 (setting [2]), the Kd was at least 27500 nM.
With FYRKKFRPL, the Kd with HLA-B*08:01 (setting [2]) stood at 0.0879 nM.
Take YLFIRKNVI: the Kd with HLA-B*08:01 (source organism: Vaccinia virus Copenhagen) amounted to 0.706 nM.
Turning to MTLMKGASK, the Kd worked out at 143 nM with HLA-A*11:01 (setting [3]), 18 nM with HLA-A*03:01 and 1520 nM in the assay with HLA-A*30:01 (setting [3]).
Consider ETPNMDVIGE, for which the Kd in the assay with HLA-A*26:01 (setting [4]) was 1100 nM.
For RFEVKKRDG, the IC50 with HLA-A*02:01 is at least 568000 nM; with HLA-A*24:02 (setting [5]), at least 81100 nM.
Take SARGLCAHI: the Kd in the assay with HLA-B*15:01 (setting [2]) was found to be 1220 nM.
As to FIYLLFASM, the Kd was determined as 1680 nM with HLA-B*08:01 (setting [2]) and 999 nM in the assay with HLA-B*15:01 (setting [2]).
On to IQNSGGTSIF, for which the Kd in the assay with HLA-B*15:01 (setting [4]) is 3.01 nM.
Turning to AIKRKLRTL, the Kd with HLA-B*08:01 (setting [1]) worked out at 17.3 nM.
As for TLGYCMIRW, the IC50 in the assay with HLA-A*24:02 (setting [2]) was at least 105000 nM.
With LSKSEFNTY, the results for the Kd with HLA-A*30:02 (setting [1]), with HLA-B*15:01 (setting [1]) and with HLA-A*01:01 (setting [1]) were 11.1 nM, 7.88 nM and 2740 nM, respectively.
Consider GTTATITPQA, for which the Kd in the assay with HLA-A*30:01 (source organism: Dengue virus 1 Nauru/West Pac/1974) came to 839 nM.
Turning to FRFEVKKRD, the IC50 with HLA-A*02:01 is at least 733000 nM; with HLA-A*24:02 (setting [5]) it was 19500 nM.
For the sequence MLKLQKCVM, the Kd in the assay with HLA-B*08:01 (setting [2]) stood at 9.25 nM.
Turning to KVLDGSPIS, in the assay with HLA-A*30:01 (setting [2]), the Kd stood at 430 nM.
With LLSRYDEHF, the Kd with HLA-B*15:01 (setting [2]) was 54 nM.
Turning to KVSSKHQLV, the Kd with HLA-A*30:01 (setting [2]) turned out to be 14 nM.
In the case of QKEGVFHTMW, the Kd was 181 nM in the assay with HLA-B*44:02 (setting [4]) and 411 nM in the assay with HLA-B*44:03 (setting [4]).
Consider AICSAVPVHW, for which the Kd in the assay with HLA-B*44:02 (setting [4]) came out at 2400 nM.
The sequence QHNAAGIAW had an IC50 with HLA-A*24:02 (source organism: Sudan ebolavirus) of 21200 nM.
On to MSLRSTIIK, for which the Kd with HLA-A*30:01 (setting [2]) is 37.2 nM.
As for HTIENTTAN, the Kd with HLA-A*26:01 (setting [1]) was 2290 nM.
Regarding KQFKQDSKY, in the assay with HLA-B*15:01 (source organism: Lymphocytic choriomeningitis virus (strain Armstrong) (clone 53b)), the Kd turned out to be 13 nM.
As for RPQPMEHKY, in the assay with HLA-A*30:02 (setting [1]), the Kd was determined as 134 nM.
Take KFLLIHQGM: the IC50 with HLA-A*02:01 is at least 150000 nM; with HLA-A*24:02 (setting [5]), 256 nM.
Consider LGTIYGFIW, for which the Kd amounted to 6.3 nM in the assay with HLA-B*58:01 and 521 nM in the assay with HLA-B*57:01.
On to LLKMPFRMV, for which the Kd with HLA-B*08:01 (setting [2]) was 7.12 nM.
In the case of VHSQGREAA, the IC50 with HLA-A*02:01 was determined as 40400 nM; with HLA-A*24:02 (setting [5]) it was 1900 nM.
As for SFKKNGAIK, the Kd with HLA-A*30:01 (setting [1]) turned out to be 357 nM.
On to IEEVMRSRW, for which the Kd in the assay with HLA-B*44:02 (setting [1]) is 178 nM; in the assay with HLA-B*44:03 (setting [1]), 36.6 nM.
Regarding EMAEALKGM, the Kd with HLA-A*26:01 (setting [1]) was found to be 8320 nM.
RSMPGTRRVM: the Kd in the assay with HLA-B*07:02 amounted to 91.9 nM.
YQVKTETTIL: the Kd in the assay with HLA-B*15:01 (setting [3]) was found to be 43.1 nM.
On to LAKRFSRGLL, for which, in the assay with HLA-B*08:01 (source organism: Dengue virus 3 Singapore/8120/1995), the Kd came to 1480 nM.
In the case of IIGRRLQRL, in the assay with HLA-B*08:01 (setting [3]), the Kd was 128 nM.
Take GCGRGGWSY: the Kd with HLA-A*30:02 (setting [4]) was 439 nM.
In the case of FLKHKYGSL, the Kd with HLA-B*08:01 (setting [2]) turned out to be 0.135 nM.
The same measure, in the same setting: to SRRYRCSFA belongs 52.3 nM; to ELDLHFQRI, 3260 nM.
In the case of LALITVSGLY, the Kd in the assay with HLA-A*30:02 (setting [3]) is 5.26 nM; with HLA-A*01:01 (setting [3]) it was 12700 nM.
On to RLKMDKLEL, for which the Kd with HLA-B*08:01 (setting [4]) was 556 nM.

By Kd is commonly meant a measure of binding affinity in units of concentration. As a reminder, the IC50 is the concentration needed to halve the response being measured. Read a low IC50 as greater potency in that assay.
